Experimental data from patent US20210024640A1.

How the values were obtained:
[1] = biological target: OX40 on HT1080 OX40 stable cell line (Homo sapiens (Human)) (UniProt P43489)
[2] = biological target: OX40 on HT1080 OX40 stable cell line (Homo sapiens (Human)) (UniProt P43489); remark: listed apart in the source

OX40 on HT1080 OX40 stable cell line (Homo sapiens (Human)), sequence (P43489 29-277): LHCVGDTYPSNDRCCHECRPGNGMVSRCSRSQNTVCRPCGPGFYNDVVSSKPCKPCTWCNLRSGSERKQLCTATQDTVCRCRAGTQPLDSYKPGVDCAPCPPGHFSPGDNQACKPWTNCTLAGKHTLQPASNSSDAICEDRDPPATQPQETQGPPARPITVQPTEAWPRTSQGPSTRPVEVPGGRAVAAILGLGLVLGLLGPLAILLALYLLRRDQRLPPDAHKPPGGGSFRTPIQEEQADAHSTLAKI

EC50 (read off the curve), IL-8 secretion, agonist assay control [1]: 0.3 nM
EC50 (read off the curve), IL-8 secretion, antagonist assay control (ligand titration) [2]: 0.3 nM
Substance: OX40L-Fc (Fc fusion)
